Results published in IntAct's records for PubMed 25910212.

B1: Emerin (Homo sapiens), P50402 (parent)
chain: MDNYADLSDTELTTLLRRYNIPHGPVVGSTRRLYEKKIFEYETQRRRLSPPSSSAASSYSFSDLNSTRGDADMYDLPKKEDALLYQSKGYNDDYYEESYFTTRTYGEPESAGPSRAVRQSVTSFPDADAFHHQVHDDDLLSSSEEECKDRERPMYGRDSAYQSITHYRPVSASRSSLDLSYYPTSSSTSFMSSSSSSSSWLTRRAIRPENRAPGAGLGQDRQVPLWGQLLLFLVFVIVLFFIYHFMQAEEGNPF
partner: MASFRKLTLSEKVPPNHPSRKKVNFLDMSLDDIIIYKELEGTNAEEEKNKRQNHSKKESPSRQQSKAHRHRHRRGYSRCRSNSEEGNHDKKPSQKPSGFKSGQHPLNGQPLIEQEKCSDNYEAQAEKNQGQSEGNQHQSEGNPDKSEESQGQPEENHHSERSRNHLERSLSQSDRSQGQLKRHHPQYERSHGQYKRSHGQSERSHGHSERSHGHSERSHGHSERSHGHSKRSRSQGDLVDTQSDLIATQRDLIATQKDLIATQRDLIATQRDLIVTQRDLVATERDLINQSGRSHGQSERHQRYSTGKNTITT
B2: Tumor necrosis factor receptor superfamily member 13B (Homo sapiens), O14836-2 (parent)
chain: MSGLGRSRRGGRSRVDQEERWSLSCRKEQGKFYDHLLRDCISCASICGQHPKQCAYFCENKLRSPVNLPPELRRQRSGEVENNSDNSGRYQGLEHRGSEASPALPGLKLSADQVALVYSTLGLCLCAVLCCFLVAVACFLKKRGDPCSCQPRSRPRQSPAKSSQDHAMEAGSPVSTSPEPVETCSFCFPECRAPTQESAVTPGTPDPTCAGRWGCHTRTTVLQPCPHIPDSGLGIVCVPAQEGGPGA
B3: F-box only protein 7 (Homo sapiens), Q9Y3I1 (parent)
chain: MRLRVRLLKRTWPLEVPETEPTLGHLRSHLRQSLLCTWGYSSNTRFTITLNYKDPLTGDEETLASYGIVSGDLICLILQDDIPAPNIPSSTDSEHSSLQNNEQPSLATSSNQTSMQDEQPSDSFQGQAAQSGVWNDDSMLGPSQNFEAESIQDNAHMAEGTGFYPSEPMLCSESVEGQVPHSLETLYQSADCSDANDALIVLIHLLMLESGYIPQGTEAKALSMPEKWKLSGVYKLQYMHPLCEGSSATLTCVPLGNLIVVNATLKINNEIRSVKRLQLLPESFICKEKLGENVANIYKDLQKLSRLFKDQLVYPLLAFTRQALNLPDVFGLVVLPLELKLRIFRLLDVRSVLSLSAVCRDLFTASNDPLLWRFLYLRDFRDNTVRVQDTDWKELYRKRHIQRKESPKGRFVMLLPSSTHTIPFYPNPLHPRPFPSSRLPPGIIGGEYDQRPTLPYVGDPISSLIPGPGETPSQFPPLRPRFDPVGPLPGPNPILPGRGGPNDRFPFRPSRGRPTDGRLSFM
partner: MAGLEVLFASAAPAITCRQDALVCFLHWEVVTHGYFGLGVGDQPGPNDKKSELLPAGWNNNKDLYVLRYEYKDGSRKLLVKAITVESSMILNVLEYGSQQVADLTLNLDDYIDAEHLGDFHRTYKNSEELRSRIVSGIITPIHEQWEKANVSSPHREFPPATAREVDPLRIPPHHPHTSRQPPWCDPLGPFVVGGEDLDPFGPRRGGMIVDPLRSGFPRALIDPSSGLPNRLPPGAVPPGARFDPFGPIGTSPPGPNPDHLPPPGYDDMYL
B4: DNA mismatch repair protein Mlh1 (Homo sapiens), P40692 (parent)
chain: MSFVAGVIRRLDETVVNRIAAGEVIQRPANAIKEMIENCLDAKSTSIQVIVKEGGLKLIQIQDNGTGIRKEDLDIVCERFTTSKLQSFEDLASISTYGFRGEALASISHVAHVTITTKTADGKCAYRASYSDGKLKAPPKPCAGNQGTQITVEDLFYNIATRRKALKNPSEEYGKILEVVGRYSVHNAGISFSVKKQGETVADVRTLPNASTVDNIRSIFGNAVSRELIEIGCEDKTLAFKMNGYISNANYSVKKCIFLLFINHRLVESTSLRKAIETVYAAYLPKNTHPFLYLSLEISPQNVDVNVHPTKHEVHFLHEESILERVQQHIESKLLGSNSSRMYFTQTLLPGLAGPSGEMVKSTTSLTSSSTSGSSDKVYAHQMVRTDSREQKLDAFLQPLSKPLSSQPQAIVTEDKTDISSGRARQQDEEMLELPAPAEVAAKNQSLEGDTTKGTSEMSEKRGPTSSNPRKRHREDSDVEMVEDDSRKEMTAACTPRRRIINLTSVLSLQEEINEQGHEVLREMLHNHSFVGCVNPQWALAQHQTKLYLLNTTKLSEELFYQILIYDFANFGVLRLSEPAPLFDLAMLALDSPESGWTEEDGPKEGLAEYIVEFLKKKAEMLADYFSLEIDEEGNLIGLPLLIDNYVPPLEGLPIFILRLATEVNWDEEKECFESLSKECAMFYSIRKQYISEESTLSGQQSEVPGSIPNSWKWTVEHIVYKALRSHILPPKHFTEDGNILQLANLPDLYKVFERC
B5: Emerin (Homo sapiens), P50402 (parent)
chain: B1 chain
partner: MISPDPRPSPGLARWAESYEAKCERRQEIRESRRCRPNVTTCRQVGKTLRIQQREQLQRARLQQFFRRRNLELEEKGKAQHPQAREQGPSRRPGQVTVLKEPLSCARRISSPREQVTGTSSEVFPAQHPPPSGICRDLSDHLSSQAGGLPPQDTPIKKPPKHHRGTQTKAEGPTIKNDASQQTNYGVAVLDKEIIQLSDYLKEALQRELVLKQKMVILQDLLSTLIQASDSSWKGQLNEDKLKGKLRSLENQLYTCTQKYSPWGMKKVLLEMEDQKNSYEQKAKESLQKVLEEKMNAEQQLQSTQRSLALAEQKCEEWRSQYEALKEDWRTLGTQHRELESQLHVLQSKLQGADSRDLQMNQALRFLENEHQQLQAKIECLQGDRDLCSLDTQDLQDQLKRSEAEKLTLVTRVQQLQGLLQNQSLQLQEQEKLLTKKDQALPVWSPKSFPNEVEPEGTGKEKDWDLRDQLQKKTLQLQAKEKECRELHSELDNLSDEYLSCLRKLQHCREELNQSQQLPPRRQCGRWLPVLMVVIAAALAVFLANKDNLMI

Variants of: B1
Conditions: with luzp4_human LUZP4, Q9P127

effect of a mutation on the interaction	Variant
with no effect	D72V

Variants of: B2
Conditions: with sgta_human SGTA

effect of a mutation on the interaction	Variant
with no effect	C58R
disrupting interaction strength	L125R
with no effect	K142M
with no effect	A103T
with no effect	P205L
with no effect	V174A
with no effect	V200F

Variants of: B3
Conditions: with psmf1_human PSMF1, Q92530

effect of a mutation on the interaction	Variant
disrupting interaction strength	T22M

Variants of: B4
Conditions: with AP2B1, P63010-2

effect of a mutation on the interaction	Variant
disrupting interaction strength	S44F
with no effect	R472I
with no effect	G244D

Variants of: B4
Conditions: with ccd33_human CCDC33, Q8N5R6

effect of a mutation on the interaction	Variant
disrupting interaction strength	S44F
with no effect	R472I
disrupting interaction strength	G244D

Variants of: B4
Conditions: with taso2_human TASOR2, Q5VWN6

effect of a mutation on the interaction	Variant
disrupting interaction strength	S44F
with no effect	R472I
disrupting interaction strength	G244D

Variants of: B5
Conditions: with TRAF3IP3, Q9Y228

effect of a mutation on the interaction	Variant
with no effect	D72V
with no effect	P183H
